The record followed here is PMC4560099.

The experiment deals with 14-3-3ε (UniProt P62259). The experiment is described as follows: GST-14-3-3ε pull-down from neuronal lysate. The following applies: reference: wild-type CRTC1270.

“CRTC1 (CRTC1270 reporter) 1-270 (from UniProt Q68ED7) S64A”: the “binding against the reference” value (sites S64) is given as “weaker”.

For “CRTC1 (CRTC1270 reporter) 1-270 (from UniProt Q68ED7) S64A/S151A/S245A”, where the note is “sites S64,S151,S245”, the “binding against the reference” value is listed as “lost”. For the substance “CRTC1 (CRTC1270 reporter) 1-270 (from UniProt Q68ED7) S151A”, the “binding against the reference” value (sites S151) was “weaker”. In the case of “CRTC1 (CRTC1270 reporter) 1-270 (from UniProt Q68ED7) S245A”, the “binding against the reference” value (sites S245) is “weaker”.
